Reference: PMC7555777, “Cataract-Associated New Mutants S175G/H181Q of βΒ2-Crystallin and P24S/S31G of γD-Crystallin Are Involved in Protein Aggregation by Structural Changes” (International Journal of Molecular Sciences, 2020)

Biological target: the molecule itself
Assay: SEC; Superdex 200 HR 10/30 in PBS; 450 µg/100 µL protein loaded; 0.5 mL/min; UV 280 nm; markers albumin (66.4 kDa) and α-lactalbumin (14.2 kDa); dimer in rapid equilibrium with monomer

Protein	binding result
wild-type βB2-crystallin (natural protein, human, human beta-crystallin B2 (CRBB2 cDNA from a human cDNA library in pGEX-4t-1); Residues left by the vector after the thrombin cut are not described; also called WT βB2-crystallin; Beta-crystallin B2; source: E. coli BL21 (DE3), purified (glutathione-agarose, GST cut off with thrombin)) ASDHQTQAGKPQSLNPKIIIFEQENFQGHSHELNGPCPNLKETGVEKAGSVLVQAGPWVGYEQANCKGEQFVFEKGEYPRWDSWTSSRRTDSLSSLRPIKVDSQEHKIILYENPNFTGKKMEIIDDDVPSFHAHGYQEKVSSVRVQSGTWVGYQYPGYRGLQYLLEKGDYKDSSDFGAPHPQVQSVRRIRDMQWHQRGAFHPSN	binds
S175G/H181Q mutant βB2-crystallin (natural protein, human, human beta-crystallin B2 (CRBB2 cDNA in pGEX-4t-1) with the two changes found in cataract lenses, made by site-directed mutagenesis; Residues left by the vector after the thrombin cut are not described; also called S175G/H181Q βB2-crystallin; CRBB2 S175G/H181Q; source: E. coli BL21 (DE3), purified (glutathione-agarose, GST cut off with thrombin)) ASDHQTQAGKPQSLNPKIIIFEQENFQGHSHELNGPCPNLKETGVEKAGSVLVQAGPWVGYEQANCKGEQFVFEKGEYPRWDSWTSSRRTDSLSSLRPIKVDSQEHKIILYENPNFTGKKMEIIDDDVPSFHAHGYQEKVSSVRVQSGTWVGYQYPGYRGLQYLLEKGDYKDSGDFGAPQPQVQSVRRIRDMQWHQRGAFHPSN	binds
